Source: the DeepSol protein solubility set

Experiment: soluble on expression in E. coli; label from the status in PepcDB or PDB records

Row | Sequence | soluble on expression in E. coli
1 | MMRVAIFTDTFTPQVNGVAKTLERLTQYFQKEQIAYSVFAPQHTAEDNFVANVNKMRSIPLTILYPECRFSFPTPRIKRELLSFKPDIIHIATPFNMGLCGLYYAKKLNIPVVGSYHTDFDAYLRYYKIEFLSNMLWNYLKWFHSHMQKNFVPSFETLHQLKNKGFQTLSIWGRGVDCTLFHPAYNTDLFRKKYNITAKYVLSYVGRIAPEKDIDTLQHLIVKTAHTRNDIHWLIAGDGPLATSLREAVPKTNITFTGYLQGGDLAEAYACSNIMVFPSATETFGNVVLESLACGTPVIGANSGGVKNIITDGKTGVLCPPKNEDAFLSSIYFLLQNEEKLEQMGIESSSFAKSKSWDEVFRGLLNQYEEVLQHNASELLALEHHHHHH | soluble
2 | MGNARGFLDFKRMDFKKIAPKERILNYKEFTIPLDKKEQEVQGGRCMDCGVAFCHTGVMSEGKDVGCPLNNLIPEWNDLVYRSLWKEAYERLDLTNPFPEFTGRVCPAPCEDSCVCAINGVSVSIKNNELSIIENAFKENLVRVNKPKQYNGKKIAVIGSGPAGLACANTLNSLGYKVSVFERSDKIGGLLMYGIPDMKLDKSIVQRRVDLLKKSGIEFKVNENIDSKDKVSKLLKEFDALVLCTGASKPIDLDIEGRKLKGVEFALDFLTQNTKTLLKTGKGADMAKGKNVLVIGSGDTSVDCIAVATRQGAKSIVRFERSPKRPLQRSQNNPWPLKADIFTTDYGLEEAIAVYGKDPREYQKMTKKFLGKTHVEGVEANDLKREFKEGKAINVEISNSKKTYKADLVLLAMGFSGCEEAISKNFGVKLDEKNNISTENFQTTHKKIFACGDARKGQSLVVWAIKDGIECALSLHQNLAKLEHHHHHH | not soluble
3 | MGSDKIHHHHHHMSQQRPDRIKQMLHYLWQHRHLSTQQAIELFGYAEATVRRDFHYIASRYPGMVRGHGCIDFDDSTEDKEYVFDVKRTLQSEAKREIAALARTFIKDGDCFFLDSGSTCLELAKCLVDAKVKVICNDIKIANELGGFPHVESYIIGGLIRPGYFSVGESLALEMINAFAVERAFISCDALSIETGITNATMFEVGVKTRIIQRSREVILMADHSKFDTVEPHAVATLSCITTILSDSALPSAIARRYQQAGCRLIMSDPSSGAR | not soluble
4 | MSHLNYNHLYYFWMVCKQGSVTKAAEALFLTPQTVTGQIKALEDRLDGKLTKRNGRNIEPTELGQLIYKYADRMFGLSYEMLDIVNYSQQANVLFDVGVADALSKRLVSKVLSTTVPEDASIHLRCFESTHELLLEQLSQHKLDMILSDCPVDSSQNSGLFSKKLGECEMSFFCSKELKGVTFPEVLEKHKVLIPGSRTSMGRKVVQWCDQQGVTPNILGEFDDVALMKAFARENNAVFLAPSVYMNEADSDLSLHKIADVRDLKEEYYVIFAERMIQHPAVKSICEADFSHLFDF | not soluble
5 | MPPKTSEVARKLERLGFKPLPRRGKGGHRVYVHPDGRKVVLPLHSGEIPWGLFKTVLKQAGITEEEFRRA | soluble
6 | MAHHHHHHMSVAPKRTAELLWLEQQRARQYEQHRKRVEQQKPCVDNKTPRNLSLSNKRALMEQERRKCIDEENRRLVVNMSAIMERGGGIDNKEPWRRTNGPRDAEIRRRREQQKLAEENLKLLHRLENVKPVYRLEKWEMERDENEILVDRISRYPYIPMNRRKGVGE | soluble
7 | MGSDKIHHHHHHMPSETIKLTAKFKLKEIPNGLDVLFSTYREIVNFLISYAYENNITSFYRLKKETYKNLRKEYPELPSHYHYTAIDMATKIYRGYRKRRGKAKGKPVFKKEVIMLDDHLFKLDFEKRIVKLSTPSGRIELEFYPAKYHEKFKGWKVGQAWLVKTPKGLFINVVFSREVEIREPENFIGVDLNENNVTLCLPKGEFIQIITHEREIRTGYFVKRRKIQKNLRVGKKREELLEKYGSRERNRVDDLYHKLANKIVELAEKYGGIALEDLTEIRDSIRYSAELNGRLHRWSFRKLQRIIEYKAKLRGIKVIFVNPAYTSTLCPICGGKLSPNGHRVLKCKCGFEADRDVVGSWNVRLKALKMWGVTVPPESHPMKKGGWKVSRIDITQITADQNGYFMRRLRRALLLQ | not soluble
8 | MENWYPCIICGIARYGHDVIATPRLTSDARVNQWLNLIGKPALNRILATNKNPTLNTFICIEHFEPEELIEPKKRRMKPIKTTRREMAIYENYFRDHGYFETQKSDVNRKKSMKLTSISCSQCSESVERDGKFAKIDMVDHAKLHMELGDCRCEKHKKIERIDRIDGENSDFQCSECAFILNAELEAVKEKAEFCFPMFQFEKSKFSNSTLEPRMKPEYIESRPFWNSEEYDPVFLDSDVKFDLIEDFEPPEPEPEPEQVDTELVKLEPIDGDYEHMEGCFSGFEQEESEQPSTSSAPRKLVQQRDRLLENLYQSNRHPSMEDINSLLDFSGDQRSIEAIFGFFERRRNDDNEMCTGDDACSSLRRYLEMELHPHGPLLEPPEIRCRMIKMFEKHWAKYRYVFRDLHSYMFSDALGLPPKYIRQRFEHFKERKNQQQKKQQEEADRAFRERHKPPKPHKPKPKSQYSKFEDETMEKAYMRTVKMNPSSYESRDLLESISISLRMSLIKVHEWFNNRKFVDSIIDQTWRTFSVNDEKRLHSTFLQNPQPTDEQYCYLAKELRAPVKEVMNWFKLKQMNEEREEEALKFEYKLDALTQESIDLFTTIVDGTTVVSVAKRRLLALELDVPYETLGRWIFYYRNREEKSRKSPKLEDDDDPPPRLAKMPRLEMNEPDNEEDIKLEPLDS | not soluble
9 | SMKYKLNVLLAEIALIGTGNHYHEEANCIAEWLHLKGEEEAVQLIRLSSLMNRGDYASALQQGNKLAYPDLEPWLALCEYRLGLGSALESRLNRLARSQDPRIQTFVNGMREQLKT | soluble
10 | MNKQIDLPIADVQGSLDTRHIAIDRVGIKAIRHPVVVADKGGGSQHTVAQFNMYVNLPHNFKGTHMSRFVEILNSHEREISVESFEEILRSMVSRLESDSGHIEMAFPYFINKSAPVSGVKSLLDYEVTFIGEIKHGNQYSFTMKVIVPVTSLCPCSKKISDYGAHNQRSHVTISVRTNSFIWIEDIIRIAEEQASCELYGLLKRPDEKYVTERAYNNPKFVEDIVRDVAEVLNHDDRIDAYIVESENFESIHNHSAYALIERDKRIR | soluble
11 | LKCSTVVCVICLEKPKYRCPACRVPYCSVVCFRKHKEQCNPET | soluble
12 | GPGSMVDVIIYTRPGCPYCARAKALLARKGAEFNEIDASATPELRAEMQERSGRNTFPQIFIGSVHVGGCDDLYALEDEGKLDSLLKTGKLI | soluble
13 | MWPSNRGPTLFQYSIRCLGFVAFIGVVRCHCPHMMGVKPPGPPSGPSPPGKFPDGDEGWDYDETAAPGIVPEPHFIQSTYIYRSPNVQEKTFSSRVVNVLKDIRTRLAKSARLTLENENIECSSPTDHYRCQEYPASGTWNYLIVEDQQKGAVTYTFDRKFNEKNDGTIEMALLDAFSRHSPSSLIAFASSEAEKEVGYIRALTVQEMDSLSGKRSHQKISMEKFGPNELILLEPALLEVRTGANLKLNSDSLRRIDSTKEFDKLLEEFRNVFILFWNSNRMVSLHTFNLWSRVADKIKISEDTLLAHVPCHDNADFCQGLNSEDYHTVVSYRNGQNTGKTENIGDVEFYENWVELSLSGAIQRLPNESKLSEFKKGIVGGKKRSSVTIGVFPSDQDTSFQHFQIAAEKLSGKYYVAYFINENSKPAITTYRHAEKQKRTDYSGKFDPATLMEFITKSSIPSIIGISNGFTTDLLFHQKRPILIQIGGAGEFEPFSKLSARQDARKTYIFTKIDGESEMIKKTKKALGVGENESIIVFLNKDRVHRIPISKPKCPDHLQKILQMIITSEADQVLSTKEPHPLRYLQVEKVNEVFGFEETLVLPDHTLFLDSDPFSRHPPITEGGGGGCPFMQGGGAPTESSQHSEL | not soluble
14 | MIVETMTYQEIADEFKKDWERSIRHKITDCFGMANKYRRYILKEGKTDKWIRFKPIEFTSPRGNNCVIQFVSKGWADYKRNGLIFVLYMYYYKSEGLYAVMIAGDNFDEFSFYTPHLFDRYRERKLKDISKPKLQTMFDFFKTNATSRFNRVNNDKYANSIFSVCPNGVTLGSEISDKIIENRTYITFEMLKSDQVQDEEKLGTALKAYLDKQL | not soluble
15 | MSLDNGIELPGVSFWGGNILQDTDGKYHLFVCGWPEDSPKGHMFWSNSTVFHAVSDRLEGPFKIQNSVGKGHNPEAFQLKDGRVVVYVIDGYYIADGVDSKVWTYGKFSFDSRDRKIIEGLSNLTFARRQDDSYLMVCRGGGVWISKDGLSPYMQLTDKRVYPDVEGRFEDPVVWRDELQYHLIVNDWLGRIAFYQRSKDGVHWVTEQGEAYVPGVSFHKDGAVEHWFKYERPKVFQDEKGRAVQMNFAVIDTIKWNDLPNEGHHHHHH | not soluble
16 | MAHHHHHHMSRVSVLAGQKPKPKESFKFLRRDEGRLSYSAATAESPSKNAANGADGANINRERRDSKALREAIAYDMRNAKSHDPLGEVVVAVPRKAPPPTRAVSAPPPNTNASSGTEKPAAGAPPQRRQPARAANPKKPEWVDPEIPPSPLLQAPTHTVVERPADNYFETSYSDSHSGGAAALSSGIGRSVSRGSDTNGADLGRYGGLTPRSAAMGAPRYASLKYEESSAAPLSGQDRNYFRRPLYTRDPALGSDAHSPAGSRVREEDELIASLEQEIKAAQKERNHYADARQQLDREKQRFESYRYGARQQMEDERADAGDRRSREQRDAQKDLRATEERFKNVSALLVAERETNRRLSQENDSLRTQLEDLTSTMREAHRIHKAEVARMRRDIDSLTRRNAELLAMAKEQQLQCLEGASASPSTRQSSSSPFSVSLDPSAQRASSASCEGGYDEDNDAAAVGERRASRAAPLAVMDFTPRASSREAAAREKRNRQMQNRMQAEEQAMEERKRHREQYIAGRKREEQEEKTRHRVAVDAAAAATACRRSEEDDLRKAATAAEKVVEERKMSGHPARTPRMQSGALSVKRRPSVSAVHAPVAPKRHHVPTREDLIGDMEEFPTEKFCDDDVVSQTALGDNSNKKEVLYRSGKREIHYANGTVKVVLPSGHTTLRFTNGDVKCTFPSGKSTYWYDAAQTMHTQMPDGVQAFEFRSTGQTEKHLPDGSKEILYPDGIYKMVRPDGSDETFYPDGEPMEE | soluble
17 | MTAVRRIRAAALPDLPDASWSNALLVGEELVMSGMTAHPATRQAAERGAALDAHAQALVVLGKVKALLEAAGGHVGNLYKLNVYVTRIADKDAIGRARQEFFAGQGTFPASTLVEVSGLVFPELLVEIDAWARLDIDLANCDEA | soluble
18 | MTSPSSASPDGHGARLDAQSIRFERLLPGPIERVWAWLADADKRARWLAGGELPRQPGQTFELHFNHAALTAETAPARYAQYDRPIVARHTLLRCEPPRVLALTWGGGAGEAPSEVLFELSEAGEQVRLVLTHTRLADRAAMLDVAGGWHAHLAVLAGKLAGQAPPPFWTTLAQAEQDYEQRLLEHHHHHH | soluble
19 | FDGIFHTVKLLEPIQQSNADPAASFALFQQKFPNLKRVANSTLNTFDVYNLLSGWKSSLTAYLNQVLALQQRIKAADQIFPNQKETLPKDENPNIFEVLGAYGGKGFFPTLGSNGLHLPPQLFQFFRDFQLSSFTIKDFEVALVSEPDIVQHDKVRYAFQVQ | not soluble
20 | MSQSRDLQGGKAFGLLKAQQEERLEGINKQFLDDPKYSNDEDLPSKLEAFKVKYMEFDLNGNGDIDIMSLKRMLEKLGVPKTHLELKRLIREVSSGSEETFSYSDFLRMMLGKRSAILRMILMYEEKNKEHKRPTGPPAKKAISELP | soluble
21 | MGFFSRDIQTMEDLLLHGLRDIYYAEQQITKALPKMIEQATNRDLSQGLTSHLEETQKQIERLDQVFKKLGQKPSGVNCPAIDGLIKEADETAGEIADKTVLDAAIVANAQAVEHYEIARYGTLIAWAEELGHDDIVRFLTTNLNEEKAANTKLNTVALRKGVNRKAAS | soluble
